For one molecule, Ka results are on record in paper PMC5772342, “Metal-dependent allosteric activation and inhibition on the same molecular scaffold: the copper sensor CopY from Streptococcus pneumoniae† †Electronic supplementary information (ESI) available. See DO”.

In data set [1] the target is T1, CopY C101A (Streptococcus pneumoniae D39, UniProt A0A0H2ZLC1 1-131, C101A). Nature of the data set: EMSA; Zn1 CopY dimer; 5 mM MgCl2; 200 mM NaCl; FA: 10 mM HEPES pH 7.0, 0.23 M NaCl, 2 mM TCEP, 40 uM ZnSO4 or 2 mM EDTA, 25 C; EMSA: 10 nM DNA, 25 mM HEPES pH 7.0, 200 mM NaCl, 5 mM MgCl2, 50 ug/mL BSA (apo: 5 mM EDTA), 25 C. The conditions noted are these: protein: recombinant; tags: N-terminal His6-TEV, cleaved; three non-native N-terminal residues remain (printed GAM); chain copies: 2; label: 5' fluorescein on strand 1; blunt.

The target of data set [2] is T1, CopY C101A. As to the kind of experiment: fluorescence anisotropy; Zn1 CopY dimer; 40 uM ZnSO4; 0.23 M NaCl; FA: 10 mM HEPES pH 7.0, 0.23 M NaCl, 2 mM TCEP, 40 uM ZnSO4 or 2 mM EDTA, 25 C; EMSA: 10 nM DNA, 25 mM HEPES pH 7.0, 200 mM NaCl, 5 mM MgCl2, 50 ug/mL BSA (apo: 5 mM EDTA), 25 C. The conditions noted are these: protein: recombinant; tags: N-terminal His6-TEV, cleaved; three non-native N-terminal residues remain (printed GAM); chain copies: 2; label: 5' fluorescein on strand 1; blunt. For orientation: Fluorescence polarisation rises when a labelled molecule tumbles more slowly, as on binding a larger partner.

B1: 32-bp cop operator (single cop box) (dsDNA)
DNA 1: GTCTATAATTGACAAATGTAGATTTTAAGAGC
DNA 2: GCTCTTAAAATCTACATTTGTCAATTATAGAC
Take B1: the Ka with CopY C101A [1] was found to be 2e+07 M⁻¹; in the data set with CopY C101A [2] it was 1e+07 M⁻¹.
